Results taken from article PMC3118390, “PKC isoforms interact with and phosphorylate DNMT1” (BMC Biology, 2011).

T1: recombinant PKCζ (human, UniProt Q05513 1-592)
T1 construct: also called rec; PKCζ
T1 sequence (looked up): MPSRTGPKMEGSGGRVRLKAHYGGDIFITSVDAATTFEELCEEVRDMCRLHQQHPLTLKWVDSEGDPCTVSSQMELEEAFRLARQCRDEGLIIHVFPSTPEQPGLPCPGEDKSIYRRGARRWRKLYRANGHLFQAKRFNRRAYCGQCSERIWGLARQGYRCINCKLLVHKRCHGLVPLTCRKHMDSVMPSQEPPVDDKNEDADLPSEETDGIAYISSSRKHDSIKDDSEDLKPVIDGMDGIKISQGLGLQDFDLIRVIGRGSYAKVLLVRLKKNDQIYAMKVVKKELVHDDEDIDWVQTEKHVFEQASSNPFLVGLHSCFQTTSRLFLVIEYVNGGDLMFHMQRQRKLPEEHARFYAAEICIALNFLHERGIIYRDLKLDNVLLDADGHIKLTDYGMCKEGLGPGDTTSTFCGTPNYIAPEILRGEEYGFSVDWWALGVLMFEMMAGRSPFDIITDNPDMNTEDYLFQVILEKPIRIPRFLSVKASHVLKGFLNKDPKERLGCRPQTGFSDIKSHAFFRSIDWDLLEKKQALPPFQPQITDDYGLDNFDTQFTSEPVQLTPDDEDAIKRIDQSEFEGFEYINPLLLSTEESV

B1: GST fusion DNMT1 fragment 1 to 446 (domain or fragment, human, UniProt P26358 1-446, looked up)
chain: MPARTAPARVPTLAVPAISLPDDVRRRLKDLERDSLTEKECVKEKLNLLHEFLQTEIKNQLCDLETKLRKEELSEEGYLAKVKSLLNKDLSLENGAHAYNREVNGRLENGNQARSEARRVGMADANSPPKPLSKPRTPRRSKSDGEAKPEPSPSPRITRKSTRQTTITSHFAKGPAKRKPQEESERAKSDESIKEEDKDQDEKRRRVTSRERVARPLPAEEPERAKSGTRTEKEEERDEKEEKRLRSQTKEPTPKQKLKEEPDREARAGVQADEDEDGDEKDEKKHRSQPKDLAAKRRPEEKEPEKVNPQISDEKDEDEKEEKRRKTTPKEPTEKKMARAKTVMNSKTHPPKCIQCGQYLDDPDLKYGQHPPDAVDEPQMLTNEKLSIFDANESGFESYEALPQHKLTCFSVYCKHGHLCPIDTGLIEKNIELFFSGSAKPIYDDD
notes: DNA methyltransferase 1 (DNMT1), human, amino acids 1-446; also called N-terminal domain (amino acids 1-446) of DNMT1; source: E. coli BL21, purified on glutathione-Sepharose beads
B2: GST fusion DNMT1 fragment 1374 to 1616 (domain or fragment, human, UniProt P26358 1374-1616, looked up)
chain: LPEVRNGASALEISYNGEPQSWFQRQLRGAQYQPILRDHICKDMSALVAARMRHIPLAPGSDWRDLPNIEVRLSDGTMARKLRYTHHDRKNGRSSSGALRGVCSCVEAGKACDPAARQFNTLIPWCLPHTGNRHNHWAGLYGRLEWDGFFSTTVTNPEPMGKQGRVLHPEQHRVVSVRECARSQGFPDTYRLFGNILDKHRQVGNAVPPPLAKAIGLEIKLCMLAKARESASAKIKEEEAAKD
notes: source: E. coli BL21, purified on glutathione-Sepharose beads
B3: GST fusion DNMT1 fragment 1081 to 1409 (domain or fragment, human, UniProt P26358 1081-1409, looked up)
chain: NRFYFLEAYNAKSKSFEDPPNHARSPGNKGKGKGKGKGKPKSQACEPSEPEIEIKLPKLRTLDVFSGCGGLSEGFHQAGISDTLWAIEMWDPAAQAFRLNNPGSTVFTEDCNILLKLVMAGETTNSRGQRLPQKGDVEMLCGGPPCQGFSGMNRFNSRTYSKFKNSLVVSFLSYCDYYRPRFFLLENVRNFVSFKRSMVLKLTLRCLVRMGYQCTFGVLQAGQYGVAQTRRRAIILAAAPGEKLPLFPEPLHVFAPRACQLSVVVDDKKFVSNITRLSSGPFRTITVRDTMSDLPEVRNGASALEISYNGEPQSWFQRQLRGAQYQPIL
notes: as for B2

target: T1, recombinant PKCζ; assay: pull-down; GST fusion DNMT1 fragments on glutathione beads, pre-incubated with 100 μg/ml BSA; 10 ng recombinant PKCζ, 4°C, one hour; binding buffer 50 mM Tris pH 7.5, 28 μM ZnCl2, 1% Triton X-100, 220 mM NaCl, 10% glycerol; washes with 500 mM NaCl; blot with a PKCζ antibody; conditions: both partners purified

Binding result, binds:
B1
B2
B3
